The values below come from patent publication US20110002926A1.

For assay [1], the target named is soluble HCV E2 (sE2661), HIS-tagged, baculovirus expressed (Hepatitis C virus (genotype not stated)). Nature of the assay: BIAcore SPR, sE2 injected over antibody; lower end differs from Table 10. (In general: In SPR one partner is held on a chip, and binding of the other changes the refractive index at the surface.)
Assay [2] deals with HCV E1E2 glycoproteins of genotype 1b (Con1) (Hepatitis C virus genotype 1b (Con1)) (UniProt Q9WMX2). The assay can be described thus: cell-based or functional assay.
For assay [3], the target named is HCV E1E2 glycoproteins of genotype 2a (J6) (Hepatitis C virus genotype 2a (J6)) (UniProt P26660). Nature of the assay: cell-based or functional assay.
Assay [4] addresses soluble HCV E2 (sE2661), HIS-tagged, baculovirus expressed (Hepatitis C virus (genotype not stated)). The assay can be described thus: BIAcore SPR, sE2 injected over antibody.
Assay [5] has the same target. Nature of the assay: BIAcore SPR.

A word on the Kd: it is the constant that tells how readily two partners part at equilibrium.

Chain of HCV E1E2 glycoproteins of genotype 1b (Con1) (Hepatitis C virus genotype 1b (Con1)) (Q9WMX2 384-746 limits assumed, chain 1 of 2): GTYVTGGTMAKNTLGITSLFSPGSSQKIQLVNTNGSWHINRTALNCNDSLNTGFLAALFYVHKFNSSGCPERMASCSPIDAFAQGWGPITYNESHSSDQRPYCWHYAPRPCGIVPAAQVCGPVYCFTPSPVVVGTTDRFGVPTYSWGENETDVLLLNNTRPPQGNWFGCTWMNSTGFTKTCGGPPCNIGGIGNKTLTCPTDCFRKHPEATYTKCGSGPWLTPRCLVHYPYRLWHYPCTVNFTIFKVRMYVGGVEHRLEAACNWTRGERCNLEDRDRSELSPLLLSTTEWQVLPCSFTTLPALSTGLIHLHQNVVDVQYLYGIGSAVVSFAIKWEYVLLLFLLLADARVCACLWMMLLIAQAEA
Chain of HCV E1E2 glycoproteins of genotype 1b (Con1) (Hepatitis C virus genotype 1b (Con1)) (Q9WMX2 192-383 limits assumed, chain 2 of 2): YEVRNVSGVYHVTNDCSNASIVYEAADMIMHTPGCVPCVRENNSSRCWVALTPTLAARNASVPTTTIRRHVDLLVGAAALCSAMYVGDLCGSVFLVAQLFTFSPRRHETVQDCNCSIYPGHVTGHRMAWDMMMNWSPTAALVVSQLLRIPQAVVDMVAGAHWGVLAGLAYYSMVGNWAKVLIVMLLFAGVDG

For AP33 monoclonal antibody, the figures for the Kd in assay [1] and in assay [4] were 0.5 to 8 nM and 5 to 8 nM, respectively. In addition, the EC50 of HCVpp entry into Huh-7.5 cells (luciferase) amounted to 1.42 µg/mL in assay [2] and 2.07 µg/mL in assay [3].

AP33 Fab: the Kd in assay [5] came to 50 nM.
